Positions count from the first letter of the chain named.
B1: Nb89 (VHH)
VHH: HVQLVESGGGLVQAGGSLRLSCAASGGTFTTFRMAWFRQTPGKEREFVAASSWGFVNYADPVKGRFTISRDNAKNTVYLEMSSLKTEDTAVYYCAARNPGTGQYDYWGQGTQVTVSS
B2: 5p-118 (VHH)
VHH: QVQLVESGGGLVQAGESLRLSCAASKPTFRNFAAGWFRQTPGKDREFVAVIEYDGDSAYYADSVKGRFTISRDNAKNTVYLQMNRLKPGDTAVYICAIGGNHYDPSKYYTADEYDYWGQGTQVTVSS
notes: class II(B) psNb
B3: 5p-132 (VHH)
VHH: QVQLVESGGGLVQAGGSLRLSCTASGYDFSILAIAWYRQAPGKERELVAAISRVGSTDYADSVKGRFTISRDNTKNTVSLQMDSLKPEDTAVYYCNAGIPMTTVLSGLGFWGQGTQVTVSS
notes: class IV psNb
B4: Nb20 (VHH)
VHH: QVQLVESGGGLVQAGGSLRLSCAVSGAGAHRVGWFRRAPGKEREFVAAIGASGGMTNYLDSVKGRFTISRDNAKNTIYLQMNSLKPQDTAVYYCAARDIETAEYIYWGQGTQVTVSS
B5: Nb21 (VHH)
VHH: B4 VHH with A27L, S52N, M55N, I105T
B6: 5p-60 (VHH)
VHH: QVQLVESGGGLVQAGGSLRLSCAVSGRTISTFGMGWFRQAPGKEREFVATITRDEDMLLYADSVKGRFTISRDTAKNMVFLQMNSLKIEDTALYYCAVRRDSSWGYSRQSTEYDYWGQGTQVTVSS
notes: class II(A) psNb
B7: 5p-182 (VHH)
VHH: EVQLVESGGGLVQTGGSLRLSCALSGYTFSIFPTAWFRQAPGKEREFVAGIRWNGSTRDYTEYADFVKGRFTISRDNAKNMVYLQMISLKPEDTALYYCAASDGVIDGTNANAYRYWGQGTQVTVSS
notes: class I psNb
B8: 5p-38 (VHH)
VHH: QVQLVESGGGLVQAGGSLRLSCAAAARFSTSAMGWFRQAPGKEREFVAAISWSNTNTHYADTVKGRFTISADTAKETVDLQMNSLKPEDTAVYYCVQGGWGIRQPIIVDYWGKGTQVTVSS
notes: class II(B) psNb
B9: 5p-35 (VHH)
VHH: HVQLVESGGGLVQAGGSLRLSCAASGRTFSRYAAGWFRQAPGKEREFVAVIEWDGDSAYYADPVKGRFTISRDNAKNTVYLQMNRLKPEDTAVYICAVGGNHYSRSKYYNLDEYDDWGQGTQVTVSS
notes: class II(B) psNb
B10: 4P-89 (VHH)
VHH: HVQLVESGGGLVQAGGSLRLSCAASGRTLTTYSMAWFRQAPGKEREVVAAITPTGFGTYYADFVKGRFTISRNSAKNTVYLQMDSLKPEDTAVYYCAARSEIIIASPTGGEYDYWGQGTQVTVSS
B11: R58 (VHH)
VHH: QVQLVESGGGLVQAGGSLRLSCAASGRDFSSTVMGWFRQAPGKERELVAWMTVTYDITYYADSVKGRFTISKDNAKNTVYLQANSLKPDDTAVYYCASGALRVGSFSPDYWGQGTQVTVSS
B12: 5p-23 (VHH)
VHH: HVQLVESGGGLVQAGDSLRLSCAASGGTFSSYAMGWFRQVPGKEREFVAAISRGGSTDYADSVKGRFTISRDNAKNTVNLQMNSLKPEDTAVYYCAADRSPLFWGMSQSHGEYDYWGQGTQVTVSS
B13: R37 (VHH)
VHH: QVQLVESGGGLVQTGGSLRLSCAASGRTFSNYVMGWFRQAPGKEREFVSSIEWNSENTFYANSVKGRFTISRDNAKNTVYLQMNSLKAEDTAVYYCAADRGSSYYYTRASEYTYWGQGTQVTVSS
B14: 5p-20 (VHH)
VHH: HVQLVESGGGLVQAGGSLRLSCAASGGTFSAYAMGWFRQVPGKEREFVAGIARSGSDYYGDSVKGRFIISRDNTKNTVYLQMNSLKAEDTGVYYCAADRAILYHGLSQRTQAYAYWGPGTQVTVSS
B15: R113 (VHH)
VHH: HVQLVESGGGLVQPGGSLRLSCAASGRSFNSYLMGWFRQAPGKEREFVAWISGSPHDIIRYRDSVKDRFTISRDNAKNTVYLQMNSLKPVDTAVYYCAVGSLRVGSFSPDYWGQGTQVTVSS
B16: R117 (VHH)
VHH: HVQLVESGGGLVQAGGSLRLSCAAPGRTFSTSAMGWFRQAPGKEREFVAAIDWSNTNIHYADTVKGRFTISTDTAKNTVYLQMNNLKPEDTAVYYCAQGGWGLTQPISVDYWGKGTQVTVSS
B17: 5p-15 (VHH)
VHH: QVQLVESGGGLVQPGDSLRLACAASGGTFGYYALGWFRQAPGKEREFVGSITQTGFGTKYADAVKGRFTISRDNAKNTMYLQMNSLKPEDTAVYYCAADPTAQNMGIRDPPYWGQGTQVTVSS
B18: 5p-18 (VHH)
VHH: EVQLVESGGGLVQAGGSLRLSCEASGRTFSSYAMGWFRQAPGKEREFVAAISQGGSTDYGDSTKGRFTISRDNAKNTVYLQMNSLKPEDTAVYYCAADQTPLRYAYSTRSQDYDYWGQGTQVTVSS

Each binder was assayed against recombinant RBD of the SARS-CoV-2 S protein (Example 1) (SARS-CoV-2, UniProt P0DTC2 319-541) (assay: SPR, RBD immobilized on CM5).
B1 was tested, and the Kd was 0.108 nM.

The binders below were run against T1, RBDSARS-CoV (SARS-CoV S protein residues 318-510, C-terminal His-tag) (SARS-CoV, UniProt P59594 318-510) (assay: SPR, RBD immobilized on CM5).
In the case of B2, the Kd is reported as 0.00396 nM.
For B3, the Kd was 304 nM.

Each binder was assayed against T2, RBDSARS-CoV-2 (SARS-CoV-2 S protein residues 319-539, C-terminal His-tag) (SARS-CoV-2, UniProt P0DTC2 319-539) (assay: SPR, RBD immobilized on CM5).
For B2, the Kd was less than 0.001 nM.
B3 showed a Kd of 0.39 nM.

These binders were tested against SARS-CoV-2 spike on pseudotyped virus particles (Wuhan-Hu-1 strain) (SARS-CoV-2, UniProt P0DTC2 14-1273) (assay: cell-based or functional assay).
For B1, the “IC50, pseudotyped SARS-CoV-2 neutralization assay (luciferase)” value (“IC50 … (luciferase)” for short) was 0.129 nM.
In the case of B4, the “IC50 … (luciferase)” value is reported as 0.102 nM.
For B5, the “IC50 … (luciferase)” value was 0.045 nM.

What follows are binders tested against spike of SARS-CoV-2 Munich strain (authentic virus) (SARS-CoV-2) (assay: cell-based or functional assay).
In the case of B2, the “PRNT SARS-CoV-2 Munich IC50” value is reported as 7.41 nM.
For B6, the “PRNT SARS-CoV-2 Munich IC50” value was 9.79 nM.
B7 was tested, and the “PRNT SARS-CoV-2 Munich IC50” value was 0.35 nM.
In the case of B8, the “PRNT SARS-CoV-2 Munich IC50” value is reported as 59.9 nM.
For B9, the “PRNT SARS-CoV-2 Munich IC50” value was 42.2 nM.

These binders were tested against T1, RBDSARS-CoV (SARS-CoV S protein …) (assay: ELISA).
B10 was tested, and the IC50 was 10 to 100 nM.
B11 was tested, and the IC50 was 1000 to 8000 nM.
Binder B12 has an IC50 of 10 to 100 nM.
B13 was tested, and the IC50 was less than 10 nM.
With B2 the IC50 was less than 10 nM.
With B14 the IC50 was 100 to 1000 nM.
B6 showed an IC50 of less than 10 nM.
B15 showed an IC50 of 10 to 100 nM.
In the case of B7, the IC50 is reported as 1000 to 8000 nM.
B16 showed an IC50 of 100 to 1000 nM.
With B8 the IC50 was less than 10 nM.
B17 showed an IC50 of 10 to 100 nM.
In the case of B18, the IC50 is reported as less than 10 nM.
Work on B9 yielded an IC50 of less than 10 nM.

Each binder was assayed against T2, RBDSARS-CoV-2 (SARS-CoV-2 S protein …) (assay: ELISA).
B10 gave an IC50 of less than 10 nM.
For B11, the IC50 was 10 to 100 nM.
B12 was tested, and the IC50 was less than 10 nM.
In the case of B13, the IC50 is reported as less than 10 nM.
Work on B2 yielded an IC50 of less than 10 nM.
In the case of B3, the IC50 is reported as less than 10 nM.
B14 gave an IC50 of less than 10 nM.
In the case of B6, the IC50 is reported as less than 10 nM.
B15 was tested, and the IC50 was less than 10 nM.
Work on B7 yielded an IC50 of less than 10 nM.
Binder B16 has an IC50 of less than 10 nM.
B8 was tested, and the IC50 was less than 10 nM.
B17 gave an IC50 of 10 to 100 nM.
Binder B18 has an IC50 of less than 10 nM.
With B9 the IC50 was less than 10 nM.

Source: patent publication US20250002563A1 (UNIVERSITY OF PITTSBURGH OF THE COMMONWEALTH SYSTEM OF …, published 2025)
